From patent US20250002610A1 (Genmab, published 2025) come the findings set out here.

As usually defined, the EC50 is the concentration at which the effect is half-maximal.

T1: human DR4 (Death Receptor 4), cell surface expressed on human tumor cell lines (human, UniProt O00220 24-468)
T1 construct: also called TNFRSF10A; TRAIL-R1
T1 sequence: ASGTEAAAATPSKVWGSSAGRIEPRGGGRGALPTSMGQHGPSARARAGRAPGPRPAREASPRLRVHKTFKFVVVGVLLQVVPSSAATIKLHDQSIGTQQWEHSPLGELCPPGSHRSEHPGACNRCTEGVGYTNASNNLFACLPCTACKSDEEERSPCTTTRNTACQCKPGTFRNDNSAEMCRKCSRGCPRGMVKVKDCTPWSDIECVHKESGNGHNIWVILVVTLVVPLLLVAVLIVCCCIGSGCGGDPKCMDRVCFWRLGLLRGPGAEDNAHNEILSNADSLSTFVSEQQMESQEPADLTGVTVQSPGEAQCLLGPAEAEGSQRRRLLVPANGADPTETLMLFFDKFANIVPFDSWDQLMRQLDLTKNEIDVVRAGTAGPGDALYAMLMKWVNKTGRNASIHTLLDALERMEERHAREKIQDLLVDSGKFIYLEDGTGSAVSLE

T2: human FAPα (Fibroblast activation protein alpha), cell surface expressed (human, UniProt Q12884 1-760)
T2 construct: Endogenous on human lung fibroblasts and CAFs
T2 sequence: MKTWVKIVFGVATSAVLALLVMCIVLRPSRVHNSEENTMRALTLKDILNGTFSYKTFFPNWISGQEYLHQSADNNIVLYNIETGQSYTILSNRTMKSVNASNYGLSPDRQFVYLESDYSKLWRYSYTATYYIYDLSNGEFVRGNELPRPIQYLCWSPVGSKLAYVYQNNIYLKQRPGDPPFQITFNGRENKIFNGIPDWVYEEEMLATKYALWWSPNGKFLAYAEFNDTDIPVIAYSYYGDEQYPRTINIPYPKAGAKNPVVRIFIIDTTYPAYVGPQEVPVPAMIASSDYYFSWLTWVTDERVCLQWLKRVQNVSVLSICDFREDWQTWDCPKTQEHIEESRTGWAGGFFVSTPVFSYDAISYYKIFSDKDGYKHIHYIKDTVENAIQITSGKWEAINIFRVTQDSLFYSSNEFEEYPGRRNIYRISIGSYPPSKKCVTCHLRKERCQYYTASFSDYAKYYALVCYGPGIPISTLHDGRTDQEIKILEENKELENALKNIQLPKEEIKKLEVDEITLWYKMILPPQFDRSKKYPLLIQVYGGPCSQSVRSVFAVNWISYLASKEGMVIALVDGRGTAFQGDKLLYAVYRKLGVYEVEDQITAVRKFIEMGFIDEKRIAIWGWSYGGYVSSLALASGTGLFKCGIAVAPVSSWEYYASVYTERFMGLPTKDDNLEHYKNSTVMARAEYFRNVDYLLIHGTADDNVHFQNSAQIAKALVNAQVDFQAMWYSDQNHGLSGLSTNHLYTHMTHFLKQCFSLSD

B1: IgG1-DR4-FERR (antibody, V domains shown)
VH: QVQLQESGPGLVKPSGTLSLTCAVSGGSISSYSWWSWIRQPPGKGLEWIGELYHSGSTNYNPSLKSRVTISVDKSKNQFSLKLRSVTAADTAVYYCVRGVATIDYWGQGTLVTVSS
VL: QSALTQPPSASGSPGQSVTISCTGTSSDVGGYNFVSWYQQDPGKAPKLLIYEVTKRPSGVPDRFSGSKSGNTASLTVSGLQAEDEADYYCSSYAGSNNVMFGGGTKLTVLG
notes: Bivalent monoclonal IgG1 lambda
B2: BisG1-FAPα-FERL/DR4-FERR (bispecific antibody, human IgG1, kappa, lambda)
heavy 1: EVQLLESGGGLVQPGGSPRLSCEASGFTFSSYALSWVRQAPGKGLEWVSAISGSGGGRYYADSVKGRFTISRDNSKNTLFLQMNSLRAEDTAVYYCAKEGYSSSGTYWDHWGQGTLVTVSSASTKGPSVFPLAPSSKSTSGGTAALGCLVKDYFPEPVTVSWNSGALTSGVHTFPAVLQSSGLYSLSSVVTVPSSSLGTQTYICNVNHKPSNTKVDKRVEPKSCDKTHTCPPCPAPEFERGPSVFLFPPKPKDTLMISRTPEVTCVVVDVSHEDPEVKFNWYVDGVEVHNAKTKPREEQYNSTYRVVSVLTVLHQDWLNGKEYKCKVSNKALPAPIEKTISKAKGQPREPQVYTLPPSREEMTKNQVSLTCLVKGFYPSDIAVEWESNGQPENNYKTTPPVLDSDGSFLLYSKLTVDKSRWQQGNVFSCSVMHEALHNHYTQKSLSLSPG
light 1: AIQMTQSPSSVSASVGDRVTITCRASQGVSSWLAWYQQKPGRAPKLLIYVASTLQSGVPSRFSGSGSGTDFTLTINSLQPEDFATYYCQQANSFPPTFGQGTRLEMKRTVAAPSVFIFPPSDEQLKSGTASVVCLLNNFYPREAKVQWKVDNALQSGNSQESVTEQDSKDSTYSLSSTLTLSKADYEKHKVYACEVTHQGLSSPVTKSFNRGEC
heavy 2: QVQLQESGPGLVKPSGTLSLTCAVSGGSISSYSWWSWIRQPPGKGLEWIGELYHSGSTNYNPSLKSRVTISVDKSKNQFSLKLRSVTAADTAVYYCVRGVATIDYWGQGTLVTVSSASTKGPSVFPLAPSSKSTSGGTAALGCLVKDYFPEPVTVSWNSGALTSGVHTFPAVLQSSGLYSLSSVVTVPSSSLGTQTYICNVNHKPSNTKVDKRVEPKSCDKTHTCPPCPAPEFERGPSVFLFPPKPKDTLMISRTPEVTCVVVDVSHEDPEVKFNWYVDGVEVHNAKTKPREEQYNSTYRVVSVLTVLHQDWLNGKEYKCKVSNKALPAPIEKTISKAKGQPREPQVYTLPPSREEMTKNQVSLTCLVKGFYPSDIAVEWESNGQPENNYKTTPPVLDSDGSFFLYSRLTVDKSRWQQGNVFSCSVMHEALHNHYTQKSLSLSPG
light 2: QSALTQPPSASGSPGQSVTISCTGTSSDVGGYNFVSWYQQDPGKAPKLLIYEVTKRPSGVPDRFSGSKSGNTASLTVSGLQAEDEADYYCSSYAGSNNVMFGGGTKLTVLGQPKAAPSVTLFPPSSEELQANKATLVCLISDFYPGAVTVAWKADSSPVKAGVETTTPSKQSNNKYAASSYLSLTPEQWKSHRSYSCQVTHEGSTVEKTVAPTECS
notes: Human IgG1 bispecific made by controlled Fab-arm exchange of IgG1-FAPα-FERL and IgG1-DR4-FERR; monovalent for FAPα and for DR4; also called GEN1057
B3: BisG1-b12-FERL/DR4-FERR (bispecific antibody, human IgG1, kappa, lambda)
heavy 1: QVQLVQSGAEVKKPGASVKVSCQASGYRFSNFVIHWVRQAPGQRFEWMGWINPYNGNKEFSAKFQDRVTFTADTSANTAYMELRSLRSADTAVYYCARVGPYSWDDSPQDNYYMDVWGKGTTVIVSSASTKGPSVFPLAPSSKSTSGGTAALGCLVKDYFPEPVTVSWNSGALTSGVHTFPAVLQSSGLYSLSSVVTVPSSSLGTQTYICNVNHKPSNTKVDKRVEPKSCDKTHTCPPCPAPEFERGPSVFLFPPKPKDTLMISRTPEVTCVVVDVSHEDPEVKFNWYVDGVEVHNAKTKPREEQYNSTYRVVSVLTVLHQDWLNGKEYKCKVSNKALPAPIEKTISKAKGQPREPQVYTLPPSREEMTKNQVSLTCLVKGFYPSDIAVEWESNGQPENNYKTTPPVLDSDGSFLLYSKLTVDKSRWQQGNVFSCSVMHEALHNHYTQKSLSLSPG
light 1: EIVLTQSPGTLSLSPGERATFSCRSSHSIRSRRVAWYQHKPGQAPRLVIHGVSNRASGISDRFSGSGSGTDFTLTITRVEPEDFALYYCQVYGASSYTFGQGTKLERKRTVAAPSVFIFPPSDEQLKSGTASVVCLLNNFYPREAKVQWKVDNALQSGNSQESVTEQDSKDSTYSLSSTLTLSKADYEKHKVYACEVTHQGLSSPVTKSFNRGEC
heavy 2: B2 heavy 2
light 2: B2 light 2
notes: Fab-arm exchange of IgG1-b12-FERL and IgG1-DR4-FERR; also called bsIgG1-ctrl-FERLxDR4-FERR
B4: IgG1-FAPα-FERL (antibody)
heavy: B2 heavy 1
light: B2 light 1
notes: Bivalent monoclonal IgG1 kappa
B5: BisG1-FAPα-FEAL/b12-FEAR (bispecific antibody, human IgG1, kappa)
heavy 1: B2 heavy 1 with R240G, D269A
light 1: B2 light 1
heavy 2: B3 heavy 1 with R246G, D275A, L415F, K419R
light 2: B3 light 1
notes: Fab-arm exchange of IgG1-FAPα-FEAL and IgG1-b12-FEAR

Changes are numbered by the printed parent chain.

One experiment has as its target T1, human DR4 (Death Receptor 4), cell …. Put plainly: flow cytometry, HCT-116 cells, n = 1. (In general: A flow cytometer gives signals particle by particle.)
Molecule B1 showed a 50% effective concentration (EC50) of 0.22 µg/mL. The molecule B2 showed a half-maximal effective concentration (EC50) of 0.48 µg/mL.

The molecule B3 registered a concentration for a half-maximal effect (EC50) of 0.51 µg/mL.

Another experiment shares this target. As to the kind of experiment: flow cytometry, MDA-MB-231 cells, n = 2.
Turning to B1, the EC50 was found to be 0.27 µg/mL. As for B2, a half-maximal effect (EC50) was put at 1.24 µg/mL. The molecule B3 came in with a concentration for a half-maximal effect (EC50) of 1 µg/mL.

The target of another experiment is T2, human FAPα (Fibroblast activation …). As to the kind of experiment: flow cytometry, Expi293F cells expressing human FAPα, n = 1. As to the method: Binding of BisG1-FAPα-FERL/DR4-FERR, BisG1-FAPα-FEAL/b12-FEAR and IgG1-FAPα-FERL to FAPα of species commonly used for nonclinical toxicology studies was assessed by flow cytometry using Expi293F cells transiently expressing FAPα from different animal species. IgG1-b12 was included as negative control.
Expi293F cells expressing recombinant FAPα from various species (human, cynomolgus monkey, dog, pig, rat or mouse) were seeded (20,000 cells/well) in 96-Well round bottom plates (Greiner Bio-one, Cat #650101). Antibody dilutions were prepared using FACS buffer, consisting of PBS (Capricorn Scientific, Cat #PBS-10XA, diluted to 1×PBS in distilled water)+1% BSA (Roche, Cat #10735086001)+0.02% Sodium Azide (Bio-World, Cat #41920044-3). Plates were centrifuged, supernatant was removed, and cells were resuspended in 100 μL of antibody dilutions (concentration range 30-0.00017 μg/mL with three-fold serial dilutions using FACS buffer) of BisG1-FAPα-FERL/DR4-FERR, BisG1-FAPα-FEAL/b12-FEAR, IgG1-FAPα-FERL and IgG1-b12 and incubated for 30 min at 4° C. […] After 30 min incubation at 4° C., cells were washed with FACS buffer and resuspended in FACS buffer supplemented with TO-PRO-3 Iodide viability marker (Invitrogen, Cat #T3605, diluted 1:4,000). Antibody binding to viable cells (gMFI of PE on TO-PRO-3 negative cells) was analyzed by flow cytometry on a FACS Celesta and FACS_Diva software (first two experiments) or iQue® 3 and FlowJo software (last experiment). gMFI was determined and visualized using GraphPad Prism. Binding curves were analyzed using nonlinear regression analysis. The concentration (pg/mL) at which 50% of the maximal effect was observed (EC₅₀) was derived from the fitted curves.
B2 registered an EC50 of 0.18 µg/mL. Same read-out and setting: the result for B4 reads 0.11 µg/mL; that for B5, 0.14 µg/mL.
